In US20240294593A1 (Genentech, published 2024) one finds Kd, koff and kon data, which are given here for 33 molecules.

For assay [1], the target named is T1, human PD-1-His (human, UniProt Q15116 25-167, limits assumed).
T1 construct: Antigen of the Octet assays; not shown: His tag
The assay is described as follows: Octet. On the technique in general: Biolayer interferometry detects binding as a change in optical thickness at a sensor tip.

Assay [2] concerns the target T1, human PD-1-His. Briefly: Octet. The source holds these as a separate data set.

Changes are numbered by the printed parent chain. Names and notes keep the numbering of the source. Like-named read-outs stand apart in the source and are kept apart here.

T1 sequence (Q15116 25-167 limits assumed): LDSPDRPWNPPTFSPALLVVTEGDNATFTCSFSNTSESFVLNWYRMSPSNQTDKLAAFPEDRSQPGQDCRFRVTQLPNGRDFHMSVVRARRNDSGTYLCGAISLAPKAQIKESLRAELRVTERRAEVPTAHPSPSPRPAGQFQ

B1: H1.1_L1 (antibody, human IgG1, kappa, V domains shown)
VH: EVQLVESGGGLVQPGGSLRLSCAASGFTFTSFGMHWVRQAPGKGLEWVSYISSGSSIIYYADSVKGRFTISRDNAKNSLYLQMNSLRAEDTAVYYCARGGRLVWSPDYWGQGTLVTVSS
VL: DIVMTQSPDSLAVSLGERATINCKSSQSLLNSGNQKNYLTWYQQKPGQPPKLLIYWASTRESGVPDRFTGSGSGTDFTLTISSLQAEDVAVYYCQNDYSYPFTFGSGTKLEIKR
notes: also called VH-S30T; Kabat 30T; copies: 2 + 2
The Kd is the constant that tells how readily two partners part at equilibrium. In general, koff refers to a measure of how fast the partners let go of each other. A lower koff goes with slow dissociation. Broadly, the kon is the rate constant with which the complex forms. In the assay with human PD-1-His [1], B1 yielded an equilibrium dissociation constant (Kd) of 32.1 nM, a koff of 0.00407 s⁻¹ and a kon of 127000 M⁻¹ s⁻¹.

B2: H1.29_L1 (antibody, human IgG1, kappa, V domains shown)
VH: B1 VH with T30S, G33N
VL: B1 VL
notes: also called VH-G35N; Kabat 33N
As for B2, in the assay with human PD-1-His [1], the Kd is 223 nM, the koff stood at 0.0437 s⁻¹ and the on-rate constant (kon) was 196000 M⁻¹ s⁻¹.

B3: H1.71_L1 (antibody, human IgG1, kappa, V domains shown)
VH: B1 VH with T30S, S56T
VL: B1 VL
notes: also called VH-S60T; Kabat 55; copies: 2 + 2
In the assay with human PD-1-His [2], B3 displayed a dissociation constant Kd of 45.8 nM, a koff of 0.00505 s⁻¹ and an association rate constant (kon) of 110000 M⁻¹ s⁻¹.

B4: H1.17_L1 (antibody, human IgG1, kappa, V domains shown)
VH: B1 VH with T30S, S31Y
VL: B1 VL
notes: also called VH-S31Y; Kabat 31Y; copies: 2 + 2
In the assay with human PD-1-His [1], B4 showed a Kd of 50.4 nM, an off-rate constant (koff) of 0.00534 s⁻¹ and a kon of 106000 M⁻¹ s⁻¹.

B5: H1.26_L1 (antibody, human IgG1, kappa, V domains shown)
VH: B1 VH with T30S, G33A
VL: B1 VL
notes: also called VH-G35A; Kabat 33A; copies: 2 + 2
For the molecule B5, in the assay with human PD-1-His [1], binding was characterised by a dissociation constant (Kd) of 193 nM, the koff is 0.036 s⁻¹ and the kon is 187000 M⁻¹ s⁻¹.

B6: H1.30_L1 (antibody, human IgG1, kappa, V domains shown)
VH: B1 VH with T30S, G33H
VL: B1 VL
notes: also called VH-G35H; Kabat 33H
In the assay with human PD-1-His [1], B6 showed a dissociation constant Kd of 76.4 nM, an off-rate (koff) of 0.0257 s⁻¹ and a kon of 337000 M⁻¹ s⁻¹.

B7: H1.9_L1 (antibody, human IgG1, kappa, V domains shown)
VH: B1 VH with T30S, S31T
VL: B1 VL
notes: also called VH-S31T; Kabat 31T; copies: 2 + 2
In the assay with human PD-1-His [1], B7 returned a Kd of 46.9 nM, a dissociation rate constant (koff) of 0.00567 s⁻¹ and an on-rate constant (kon) of 121000 M⁻¹ s⁻¹.

B8: H1.22_L1 (antibody, human IgG1, kappa, V domains shown)
VH: B1 VH with T30S, F32H
VL: B1 VL
notes: also called VH-F34H; Kabat 32H; copies: 2 + 2
In the assay with human PD-1-His [1], B8 registered a Kd of 34 nM, a koff of 0.00358 s⁻¹ and an on-rate constant (kon) of 105000 M⁻¹ s⁻¹.

B9: H1.72_L1 (antibody, human IgG1, kappa, V domains shown)
VH: B1 VH with T30S, S56A
VL: B1 VL
notes: also called VH-S60A; Kabat 55; copies: 2 + 2
As for B9, in the assay with human PD-1-His [2], the Kd is 62.5 nM, the koff turned out to be 0.00701 s⁻¹ and the association rate constant (kon) was 112000 M⁻¹ s⁻¹.

B10: H1.15_L1 (antibody, human IgG1, kappa, V domains shown)
VH: B1 VH with T30S, S31D
VL: B1 VL
notes: also called VH-S31D; Kabat 31D; copies: 2 + 2
In the assay with human PD-1-His [1], B10 gave a Kd of 40 nM, an off-rate constant (koff) of 0.00557 s⁻¹ and a kon of 139000 M⁻¹ s⁻¹.

B11: H1.4_L1 (antibody, human IgG1, kappa, V domains shown)
VH: B1 VH with T30G
VL: B1 VL
notes: also called VH-S30G; Kabat 30G; copies: 2 + 2
In the assay with human PD-1-His [1], B11 gave an equilibrium dissociation constant (Kd) of 34 nM, a koff of 0.00422 s⁻¹ and a kon of 124000 M⁻¹ s⁻¹.

B12: H1.23_L1 (antibody, human IgG1, kappa, V domains shown)
VH: B1 VH with T30S, F32Q
VL: B1 VL
notes: also called VH-F34Q; Kabat 32Q
In the assay with human PD-1-His [1], B12 came in with a Kd of 73.4 nM, an off-rate constant (koff) of 0.00863 s⁻¹ and a kon of 118000 M⁻¹ s⁻¹.

B13: H1.12_L1 (antibody, human IgG1, kappa, V domains shown)
VH: B1 VH with T30S, S31G
VL: B1 VL
notes: also called VH-S31G; Kabat 31G; copies: 2 + 2
In the assay with human PD-1-His [1], B13 gave a dissociation constant Kd of 44.2 nM, a koff of 0.00537 s⁻¹ and an on-rate (kon) of 122000 M⁻¹ s⁻¹.

B14: H1.27_L1 (antibody, human IgG1, kappa, V domains shown)
VH: B1 VH with T30S, G33S
VL: B1 VL
notes: also called VH-G35S; Kabat 33S; copies: 2 + 2
In the assay with human PD-1-His [1], B14 displayed a dissociation constant Kd of 104 nM, an off-rate constant (koff) of 0.0142 s⁻¹ and an association rate constant (kon) of 137000 M⁻¹ s⁻¹.

B15: H1.21_L1 (antibody, human IgG1, kappa, V domains shown)
VH: B1 VH with T30S, F32I
VL: B1 VL
notes: also called VH-F34I; Kabat 32I; copies: 2 + 2
In the case of B15, in the assay with human PD-1-His [1], the affinity, expressed as Kd, was 27.2 nM; the dissociation rate constant (koff) is 0.00371 s⁻¹; the kon is 137000 M⁻¹ s⁻¹.

B16: H1.14_L1 (antibody, human IgG1, kappa, V domains shown)
VH: B1 VH with T30S, S31H
VL: B1 VL
notes: also called VH-S31H; Kabat 31H; copies: 2 + 2
As to B16, in the assay with human PD-1-His [1], binding was put at a Kd of 45.8 nM, the off-rate (koff) amounted to 0.00546 s⁻¹ and the kon is 119000 M⁻¹ s⁻¹.

B17: H1.28_L1 (antibody, human IgG1, kappa, V domains shown)
VH: B1 VH with T30S, G33T
VL: B1 VL
notes: also called VH-G35T; Kabat 33T; copies: 2 + 2
In the assay with human PD-1-His [1], B17 yielded a dissociation constant Kd of 92.7 nM, a koff of 0.0279 s⁻¹ and an on-rate (kon) of 301000 M⁻¹ s⁻¹.

B18: H1.13_L1 (antibody, human IgG1, kappa, V domains shown)
VH: B1 VH with T30S, S31V
VL: B1 VL
notes: also called VH-S31V; Kabat 31V; copies: 2 + 2
As for B18, in the assay with human PD-1-His [1], binding was characterised by a dissociation constant (Kd) of 50.2 nM, the dissociation rate constant (koff) came out at 0.00634 s⁻¹ and the kon was determined as 126000 M⁻¹ s⁻¹.

B19: H1.25_L1 (antibody, human IgG1, kappa, V domains shown)
VH: B1 VH with T30S, F32K
VL: B1 VL
notes: also called VH-F34K; Kabat 32K; copies: 2 + 2
In the assay with human PD-1-His [1], B19 showed an equilibrium dissociation constant (Kd) of 113 nM, a koff of 0.012 s⁻¹ and a kon of 107000 M⁻¹ s⁻¹.

B20: H1.11_L1 (antibody, human IgG1, kappa, V domains shown)
VH: B1 VH with T30S, S31Q
VL: B1 VL
notes: also called VH-S31Q; Kabat 31Q; copies: 2 + 2
In the assay with human PD-1-His [1], B20 had a Kd of 36.8 nM, a dissociation rate constant (koff) of 0.00454 s⁻¹ and an on-rate constant (kon) of 123000 M⁻¹ s⁻¹.

B21: H1.6_L1 (antibody, human IgG1, kappa, V domains shown)
VH: B1 VH with T30H
VL: B1 VL
notes: also called VH-S30H; Kabat 30H; copies: 2 + 2
With B21, in the assay with human PD-1-His [1], the Kd was determined as 48.5 nM, the koff was 0.00529 s⁻¹ and the association rate constant (kon) turned out to be 109000 M⁻¹ s⁻¹.

B22: H1.24_L1 (antibody, human IgG1, kappa, V domains shown)
VH: B1 VH with T30S, F32S
VL: B1 VL
notes: also called VH-F34S; Kabat 32S; copies: 2 + 2
In the assay with human PD-1-His [1], B22 registered a Kd of 54.9 nM, a koff of 0.00688 s⁻¹ and a kon of 125000 M⁻¹ s⁻¹.

B23: H1.10_L1 (antibody, human IgG1, kappa, V domains shown)
VH: B1 VH with T30S, S31A
VL: B1 VL
notes: also called VH-S31A; Kabat 31A; copies: 2 + 2
In the assay with human PD-1-His [1], B23 registered a Kd of 36.9 nM, a koff of 0.00425 s⁻¹ and an on-rate (kon) of 115000 M⁻¹ s⁻¹.

B24: H1.16_L1 (antibody, human IgG1, kappa, V domains shown)
VH: B1 VH with T30S, S31K
VL: B1 VL
notes: also called VH-S31K; Kabat 31K; copies: 2 + 2
Turning to B24, in the assay with human PD-1-His [1], binding was put at a Kd of 47.1 nM, the off-rate constant (koff) worked out at 0.00514 s⁻¹ and the kon was determined as 109000 M⁻¹ s⁻¹.

B25: H1.5_L1 (antibody, human IgG1, kappa, V domains shown)
VH: B1 VH with T30V
VL: B1 VL
notes: also called VH-S30V; Kabat 30V; copies: 2 + 2
In the assay with human PD-1-His [1], B25 showed a dissociation constant (Kd) of 37.4 nM, a koff of 0.00475 s⁻¹ and an on-rate (kon) of 127000 M⁻¹ s⁻¹.

B26: H1.3_L1 (antibody, human IgG1, kappa, V domains shown)
VH: B1 VH with T30Q
VL: B1 VL
notes: also called VH-S30Q; Kabat 30Q; copies: 2 + 2
In the assay with human PD-1-His [1], B26 gave a Kd of 40 nM, an off-rate constant (koff) of 0.00472 s⁻¹ and a kon of 118000 M⁻¹ s⁻¹.

B27: H1.18_L1 (antibody, human IgG1, kappa, V domains shown)
VH: B1 VH with T30S, F32Y
VL: B1 VL
notes: also called VH-F34Y; Kabat 32Y; copies: 2 + 2
B27: in the assay with human PD-1-His [1], binding was put at a Kd of 47.9 nM, the off-rate constant (koff) worked out at 0.00597 s⁻¹ and the association rate constant (kon) worked out at 125000 M⁻¹ s⁻¹.

B28: H1.36_L1 (antibody, human IgG1, kappa, V domains shown)
VH: B1 VH with T30S, S52T
VL: B1 VL
notes: also called VH-S54T; Kabat 52T; copies: 2 + 2
In the assay with human PD-1-His [1], B28 registered an equilibrium dissociation constant (Kd) of 374 nM, a koff of 0.046 s⁻¹ and an on-rate constant (kon) of 123000 M⁻¹ s⁻¹.

B29: H1.20_L1 (antibody, human IgG1, kappa, V domains shown)
VH: B1 VH with T30S, F32W
VL: B1 VL
notes: also called VH-F34W; Kabat 32W; copies: 2 + 2
As to B29, in the assay with human PD-1-His [1], binding was put at a Kd of 162 nM, the koff is 0.0204 s⁻¹ and the on-rate constant (kon) came out at 126000 M⁻¹ s⁻¹.

B30: H1.31_L1 (antibody, human IgG1, kappa, V domains shown)
VH: B1 VH with T30S, G33D
VL: B1 VL
notes: also called VH-G35D; Kabat 33D; copies: 2 + 2
B30: in the assay with human PD-1-His [1], the affinity, expressed as Kd, was 56.4 nM; the off-rate (koff) was determined as 0.0401 s⁻¹; the association rate constant (kon) was 711000 M⁻¹ s⁻¹.

B31: H1.8_L1 (antibody, human IgG1, kappa, V domains shown)
VH: B1 VH with T30Y
VL: B1 VL
notes: also called VH-S30Y; Kabat 30Y
In the assay with human PD-1-His [1], B31 registered a Kd of 51.3 nM, a koff of 0.00534 s⁻¹ and a kon of 104000 M⁻¹ s⁻¹.

B32: H1.7_L1 (antibody, human IgG1, kappa, V domains shown)
VH: B1 VH with T30K
VL: B1 VL
notes: also called VH-S30K; Kabat 30K; copies: 2 + 2
In the assay with human PD-1-His [1], B32 came in with a dissociation constant Kd of 52.5 nM, a koff of 0.00545 s⁻¹ and an on-rate (kon) of 104000 M⁻¹ s⁻¹.

B33: H1.2_L1 (antibody, human IgG1, kappa, V domains shown)
VH: B1 VH with T30A
VL: B1 VL
notes: also called VH-S30A; Kabat 30A; copies: 2 + 2
As to B33, in the assay with human PD-1-His [1], the Kd was 35.6 nM, the off-rate (koff) turned out to be 0.00432 s⁻¹ and the kon was determined as 121000 M⁻¹ s⁻¹.
